The results in this text go back to patent US20190008947A1.

“And” between values parts separate entries of the source, which are not always exact repeats. Equal entries are not always repeated. Where two headings read alike, the source gives them in different places.

One assay deals with T1, H-2Kb (mouse), P01901.
T1 chain: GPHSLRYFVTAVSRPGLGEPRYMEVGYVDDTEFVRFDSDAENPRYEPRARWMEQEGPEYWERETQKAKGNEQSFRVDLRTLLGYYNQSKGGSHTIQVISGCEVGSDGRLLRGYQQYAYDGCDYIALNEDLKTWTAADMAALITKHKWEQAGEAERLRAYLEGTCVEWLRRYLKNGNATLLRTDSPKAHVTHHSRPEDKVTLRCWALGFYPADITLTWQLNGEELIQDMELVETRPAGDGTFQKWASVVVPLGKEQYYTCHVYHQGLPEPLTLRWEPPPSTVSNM
Kind of assay: ProImmune REVEAL MHC-peptide binding assay, H-2Kb.

For assay [1], the target named is A*24:02, P16209. The note with it: modification not given.
The target of assay [2] is A*11:01, P04439. The note with it: modification not given.
The target of the next assay is B*07:02, P01889. Kind of assay: ProImmune REVEAL MHC-peptide binding assay, B*07:02.
Assay [3] addresses A*11:01, P04439. The note with it: modification not given. The source holds these as a separate data set.
The target in assay [4] is HLA-A*32:01. The experiment in a line: HLA binding; serotype 3. The note with it: chains peptide; modification not given.
Another assay addresses HLA-B*15:01. The experiment in a line: HLA binding; serotype 3. The note with it: chains peptide; modification not given.
Assay [5] addresses HLA-B*40:01. The experiment in a line: HLA binding; serotype 3. The conditions noted are these: chains peptide; modification not given.
Assay [6] has as its target HLA-A*02:01 (human), P04439. The experiment in a line: ProImmune REVEAL MHC-peptide binding assay, A*02:01, score against positive control.
Assay [7] concerns the target T2, HLA-A*02:01 (human), P04439.
T2 chain: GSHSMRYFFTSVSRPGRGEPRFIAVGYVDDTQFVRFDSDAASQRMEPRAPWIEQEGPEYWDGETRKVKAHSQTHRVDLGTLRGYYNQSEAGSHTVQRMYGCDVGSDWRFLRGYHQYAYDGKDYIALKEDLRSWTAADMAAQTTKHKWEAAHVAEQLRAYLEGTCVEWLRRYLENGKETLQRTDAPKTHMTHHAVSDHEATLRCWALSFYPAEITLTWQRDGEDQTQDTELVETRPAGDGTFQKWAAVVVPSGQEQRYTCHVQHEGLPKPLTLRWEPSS
The conditions noted are these: chains peptide; modification not given.

The next assay concerns the target B*27:05, P13750. The experiment in a line: ProImmune REVEAL MHC-peptide binding assay, B*27:05.
For assay [8], the target named is A*24:02, P16209. The conditions noted are these: modification not given. This is another data set of the same source.
The target in assay [9] is T2, HLA-A*02:01 (human), P04439. The conditions noted are these: chains peptide; modification not given.
Assay [10] concerns the target A*24:02, P16209. The note with it: modification not given. This is another data set of the same source.
In assay [11] the target is T3, A*03:01, P04439.
T3 chain: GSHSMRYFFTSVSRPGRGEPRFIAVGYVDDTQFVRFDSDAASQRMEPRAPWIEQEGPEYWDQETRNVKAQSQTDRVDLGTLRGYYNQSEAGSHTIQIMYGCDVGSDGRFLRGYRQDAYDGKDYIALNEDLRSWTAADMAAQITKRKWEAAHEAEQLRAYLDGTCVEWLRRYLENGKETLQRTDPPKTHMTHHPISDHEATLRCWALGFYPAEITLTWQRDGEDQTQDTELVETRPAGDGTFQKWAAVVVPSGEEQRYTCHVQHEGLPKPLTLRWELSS
The note with it: modification not given.

The target in assay [12] is A*11:01, P04439. The conditions noted are these: modification not given. The source holds these as a separate data set.
Assay [13] addresses A*11:01, P04439. The conditions noted are these: modification not given. The source holds these as a separate data set.
The target of assay [14] is A*11:01, P04439. The conditions noted are these: modification not given. This is another data set of the same source.
In assay [15] the target is HLA-A*32:01. The experiment in a line: HLA binding; serotype 4. The conditions noted are these: chains peptide; modification not given.
The target in assay [16] is HLA-B*40:01. Kind of assay: HLA binding; serotype 4. The conditions noted are these: chains peptide; modification not given.
Assay [17] deals with HLA-A*32:01. Kind of assay: HLA binding; serotype 1. The note with it: chains peptide; modification not given.
The target in assay [18] is HLA-B*40:01. Kind of assay: HLA binding; serotype 1. The note with it: chains peptide; modification not given.
Assay [19] addresses A*11:01, P04439. The conditions noted are these: modification not given. This is another data set of the same source.
In assay [20] the target is A*03:01, P04439. The conditions noted are these: modification not given. The source holds these as a separate data set.
The target in assay [21] is A*11:01, P04439. The note with it: modification not given. This is another data set of the same source.
Assay [22] has as its target T3, A*03:01, P04439. The note with it: modification not given.
Assay [23] concerns the target A*24:02, P16209. The note with it: modification not given. The source holds these as a separate data set.

B1: … (peptide)
peptide: FKPGTSGSP
modifications: not checked
B1 displayed an REVEAL ® score at 0 h with H-2Kb (mouse), P01901 of 45.7.

B2: … (peptide)
peptide: QQRVFKEKV
modifications: not checked
For the molecule B2, the REVEAL ® score at 0 h with H-2Kb (mouse), P01901 is 63.4.

B3: … (peptide)
peptide: LAPTRVVAA
modifications: not checked
Turning to B3, the REVEAL ® score at 0 h with H-2Kb (mouse), P01901 is 102.

B4: … (peptide)
peptide: ATFTMRLLS
modifications: not checked
In the assay with H-2Kb (mouse), P01901, B4 showed an REVEAL ® score at 0 h of 55.6.

B5: … (peptide)
peptide: LMYFHRRDL
modifications: not checked
In the assay with H-2Kb (mouse), P01901, B5 gave an REVEAL ® score at 0 h of 54.9.

B6: …, serotype 3 (peptide)
chain: SYAMCLNTF
A word on the IC50: it is the midpoint of a concentration-inhibition curve. B6 yielded an IC50 with A*24:02, P16209 [1] of 540 nM.

B7: …, serotype 2 (peptide)
chain: VTFKNPHAK
Regarding B7, the half-maximal inhibitory concentration (IC50) with A*11:01, P04439 [2] is 17 nM. In other words, the double-digit nanomolar range.

B8: … (peptide)
peptide: HATFTMRLL
modifications: not checked
Molecule B8 registered an REVEAL ® score at 0 h with H-2Kb (mouse), P01901 of 69.5.

B9: … (peptide)
peptide: LSRNSTHEM
modifications: not checked
For the molecule B9, the REVEAL ® score at 0 h in the assay with H-2Kb (mouse), P01901 is 51.1; in the assay with B*07:02, P01889, 124.

B10: …, serotype 3 (peptide)
chain: VTFKNAHAK
Molecule B10 yielded an IC50 with A*11:01, P04439 [3] of 17 nM.

B11: …, serotype 3 (peptide)
chain: RQWFFDLPL
B11: the IC50 with HLA-A*32:01 [4] came out at 7 nM; in the assay with HLA-B*15:01 it was 80 nM; in the assay with HLA-B*40:01 [5], 51 nM.

B12: … (SEQ ID NO: 341) (peptide)
peptide: KQWFLDLPL
modifications: not checked
B12 returned an REVEAL Score in [6] of 86. In addition, in assay [7], the IC50 was 11 nM.

B13: … (peptide)
peptide: LMCHATFTM
modifications: not checked
For B13, the REVEAL ® score at 0 h with H-2Kb (mouse), P01901 came out at 59; with B*27:05, P13750, 98.2.

B14: …, serotype 4 (peptide)
chain: SYTMCSGKF
Take B14: the IC50 with A*24:02, P16209 [8] came to 222 nM.

B15: … (SEQ ID NO: 343) (peptide)
peptide: RQWFFDLPL
modifications: not checked
For the molecule B15, the REVEAL Score in [6] came out at 80.5. In addition, in [9], the IC50 was 39 nM and 12 nM.

B16: …, serotype 2 (peptide)
chain: SYSMCTGKF
B16 returned an IC50 with A*24:02, P16209 [10] of 115 nM.

B17: … (peptide)
peptide: YGLNTFTNM
modifications: not checked
Consider B17, for which the REVEAL ® score at 0 h with H-2Kb (mouse), P01901 stood at 75.4.

B18: … (peptide)
peptide: PLSRNSTHE
modifications: not checked
The molecule B18 showed an REVEAL ® score at 0 h with B*07:02, P01889 of 65.

B19: … (peptide)
peptide: FKLTYQNKV
modifications: not checked
Molecule B19 returned an REVEAL ® score at 0 h with B*27:05, P13750 of 53.7.

B20: …, serotype 3 (peptide)
chain: ALKINWYRK
On to B20, for which the IC50 with A*03:01, P04439 [11] amounted to 193 nM; with A*11:01, P04439 [12], 376 nM.

B21: … (peptide)
peptide: RRGDLPVWL
modifications: not checked
For the molecule B21, the REVEAL ® score at 0 h with B*27:05, P13750 was 145.

B22: … (peptide)
peptide: ARGYISTRV
modifications: not checked
B22 yielded an REVEAL ® score at 0 h in the assay with B*27:05, P13750 of 125.

B23: …, serotype 4 (peptide)
chain: VTFKVPHAK
In the assay with A*11:01, P04439 [13], B23 registered a half-inhibitory concentration (IC50) of 14 nM.

B24: … (peptide)
peptide: SRNSTHEMY
modifications: not checked
In the assay with B*07:02, P01889, B24 gave an REVEAL ® score at 0 h of 52.

B25: …, serotype 1 (peptide)
chain: VTFKTAHAK
Take B25: the IC50 in the assay with A*11:01, P04439 [14] came to 16 nM.

B26: … (peptide)
peptide: CHATFTMRL
modifications: not checked
Regarding B26, the REVEAL ® score at 0 h with H-2Kb (mouse), P01901 worked out at 60.3.

B27: …, serotype 4 (peptide)
chain: KQWFLDLPL
With B27, the IC50 is 8 nM with HLA-A*32:01 [15] and 398 nM in the assay with HLA-B*40:01 [16].

B28: …, serotype 1 (peptide)
chain: KQWFLDLPL
B28: the IC50 with HLA-A*32:01 [17] was determined as 8 nM; in the assay with HLA-B*40:01 [18], 398 nM.

B29: …, serotype 4 (peptide)
chain: ALTLHWFRK
Take B29: the IC50 with A*11:01, P04439 [19] worked out at 47 nM; with A*03:01, P04439 [20], 34 nM.

B30: …, serotype 2 (peptide)
chain: QLKLNWFKK
With B30, the IC50 with A*11:01, P04439 [21] stood at 778 nM; in the assay with A*03:01, P04439 [22], 151 nM.

B31: …, serotype 1 (peptide)
chain: SYVMCTGSF
As to B31, the IC50 with A*24:02, P16209 [23] is 104 nM. That is a sub-micromolar value.
